Reference: the supplement of paper PMC9233669
This sample holds only a part of the variants without activity.

Key:
biotinyl-Phe-oxazolone = test: self-aminoacylation, catalytic enhancement (BFO) (fold over background); higher = more active; k-Seq, kA / k0A0; sequences stand for … in GGGAAUGGAUCCACAUCUACGAAUUC…UUCACUGCAGACUUGACGAAGCUG
How it was run: (§1)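 Mutagenized RNA pools (0.43 μM; 21-nt variable region) were treated with 2–1250 μM of each biotinyl-aminoacyl-oxazolone. Conditions were 50 μL HEPES/NaCl/KCl/MgCl2/CaCl2 buffer, 5% acetonitrile, pH 6.9–7.0, room temperature, 90 minutes. Catalytic enhancement, the median kA relative to the uncatalyzed rate, was derived from streptavidin capture, qPCR and Illumina sequencing.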

biotinyl-Met-oxazolone = test: self-aminoacylation, catalytic enhancement (BMO) (fold over background); higher = more active; k-Seq, kA / k0A0; sequences stand for … in GGGAAUGGAUCCACAUCUACGAAUUC…UUCACUGCAGACUUGACGAAGCUG
How it was run: as §1

biotinyl-Trp-oxazolone = test: self-aminoacylation, catalytic enhancement (BWO) (fold over background); higher = more active; k-Seq, kA / k0A0; sequences stand for … in GGGAAUGGAUCCACAUCUACGAAUUC…UUCACUGCAGACUUGACGAAGCUG
How it was run: as §1

biotinyl-Leu-oxazolone = test: self-aminoacylation, catalytic enhancement (BLO) (fold over background); higher = more active; k-Seq, kA / k0A0; sequences stand for … in GGGAAUGGAUCCACAUCUACGAAUUC…UUCACUGCAGACUUGACGAAGCUG
How it was run: as §1

AAGUCUGCUAACAGUCGCAAG [Fam3.1 aminoacylation ribozyme variant]
self-aminoacylation (biotinyl-Phe-oxazolone): 28.4
self-aminoacylation (biotinyl-Met-oxazolone): 2.09
self-aminoacylation (biotinyl-Trp-oxazolone): 7.03

AAGUCUGCUAAUAGUCGCAAG [Fam3.1 aminoacylation ribozyme variant]
self-aminoacylation (biotinyl-Phe-oxazolone): 51.8
self-aminoacylation (biotinyl-Met-oxazolone): 2.44
self-aminoacylation (biotinyl-Trp-oxazolone): 9.75

AAGUUAGCUAAAAGUCGCAAG [Fam3.1 aminoacylation ribozyme variant]
self-aminoacylation (biotinyl-Leu-oxazolone): 2.01
self-aminoacylation (biotinyl-Phe-oxazolone): 2.41

AAGUUGGCUAAUUGUCGCAAG [Fam3.1 aminoacylation ribozyme variant]
self-aminoacylation (biotinyl-Leu-oxazolone): 2.41
self-aminoacylation (biotinyl-Phe-oxazolone): 2.94
self-aminoacylation (biotinyl-Trp-oxazolone): 2.71

AAGUUUGCCAAUAGUCGCAAA [Fam3.1 aminoacylation ribozyme variant]
self-aminoacylation (biotinyl-Phe-oxazolone): 2.47
self-aminoacylation (biotinyl-Met-oxazolone): 2.37

AAGUUUGCCAAUAGUCGCAAU [Fam3.1 aminoacylation ribozyme variant]
self-aminoacylation (biotinyl-Phe-oxazolone): 9.89
self-aminoacylation (biotinyl-Met-oxazolone): 2.07
self-aminoacylation (biotinyl-Trp-oxazolone): 3.5

AAGUUUGCUAAUAGUCGAAAA [Fam3.1 aminoacylation ribozyme variant]
self-aminoacylation (biotinyl-Met-oxazolone): 2.08

ACCUUUGCUAAUAGUCGCAAG [Fam3.1 aminoacylation ribozyme variant]
self-aminoacylation (biotinyl-Leu-oxazolone): 2.31
self-aminoacylation (biotinyl-Phe-oxazolone): 2.02
self-aminoacylation (biotinyl-Trp-oxazolone): 2.06

ACUACCCUGGUCAUCGAGAGA [Fam2.1 aminoacylation ribozyme variant]
self-aminoacylation (biotinyl-Met-oxazolone): 2.02

AGUACCCUGGUCAUCGAGUAA [Fam2.1 aminoacylation ribozyme variant]
self-aminoacylation (biotinyl-Leu-oxazolone): 2.52
self-aminoacylation (biotinyl-Phe-oxazolone): 3.84
self-aminoacylation (biotinyl-Met-oxazolone): 2.71

AUCACCCUGGUCAUCGAGUGC [Fam2.1 aminoacylation ribozyme variant]
self-aminoacylation (biotinyl-Leu-oxazolone): 2.56
self-aminoacylation (biotinyl-Phe-oxazolone): 4.47
self-aminoacylation (biotinyl-Met-oxazolone): 3.26
self-aminoacylation (biotinyl-Trp-oxazolone): 2.4

AUCACCCUGGUCAUCGAGUUA [Fam2.1 aminoacylation ribozyme variant]
self-aminoacylation (biotinyl-Leu-oxazolone): 2.83
self-aminoacylation (biotinyl-Phe-oxazolone): 4.31
self-aminoacylation (biotinyl-Met-oxazolone): 2.93
self-aminoacylation (biotinyl-Trp-oxazolone): 2.62

AUUAACCUAGUUCAUCGGGUG [Fam2.2 aminoacylation ribozyme variant]
self-aminoacylation (biotinyl-Leu-oxazolone): 2.71
self-aminoacylation (biotinyl-Phe-oxazolone): 12.3
self-aminoacylation (biotinyl-Met-oxazolone): 2.14
self-aminoacylation (biotinyl-Trp-oxazolone): 2.54

AUUACACUGGUCAUCCAGUGA [Fam2.1 aminoacylation ribozyme variant]
self-aminoacylation (biotinyl-Leu-oxazolone): 3.01
self-aminoacylation (biotinyl-Phe-oxazolone): 9.37
self-aminoacylation (biotinyl-Met-oxazolone): 3.47
self-aminoacylation (biotinyl-Trp-oxazolone): 3.06

AUUACCCUGGUCAUCGUGCGA [Fam2.1 aminoacylation ribozyme variant]
self-aminoacylation (biotinyl-Leu-oxazolone): 2.14
self-aminoacylation (biotinyl-Phe-oxazolone): 9.74
self-aminoacylation (biotinyl-Trp-oxazolone): 2.28

AUUACCCUGGUCGUCGAGCGA [Fam2.1 aminoacylation ribozyme variant]
self-aminoacylation (biotinyl-Leu-oxazolone): 2.17
self-aminoacylation (biotinyl-Phe-oxazolone): 3.35

AUUACUCUGGUCAUCGAGUGG [Fam2.1 aminoacylation ribozyme variant]
self-aminoacylation (biotinyl-Leu-oxazolone): 2.42
self-aminoacylation (biotinyl-Met-oxazolone): 2.16

AUUCACAUAGGUCGUCGGGUG [Fam2.2 aminoacylation ribozyme variant]
self-aminoacylation (biotinyl-Leu-oxazolone): 2.07
self-aminoacylation (biotinyl-Phe-oxazolone): 7.92

AUUCACCUAGCUUAUCGGGUG [Fam2.2 aminoacylation ribozyme variant]
self-aminoacylation (biotinyl-Phe-oxazolone): 4.71
self-aminoacylation (biotinyl-Met-oxazolone): 2.12
self-aminoacylation (biotinyl-Trp-oxazolone): 2.2

AUUCACCUAGGUCAGCGGCUG [Fam2.2 aminoacylation ribozyme variant]
self-aminoacylation (biotinyl-Leu-oxazolone): 3.16
self-aminoacylation (biotinyl-Phe-oxazolone): 8.56
self-aminoacylation (biotinyl-Met-oxazolone): 2.5

AUUCACCUAGUUCAUCGGGGG [Fam2.2 aminoacylation ribozyme variant]
self-aminoacylation (biotinyl-Leu-oxazolone): 2.23
self-aminoacylation (biotinyl-Phe-oxazolone): 6.17

AUUCACUUAGGUCAUAGGGUG [Fam2.2 aminoacylation ribozyme variant]
self-aminoacylation (biotinyl-Leu-oxazolone): 2.08
self-aminoacylation (biotinyl-Phe-oxazolone): 3.24

AUUCAUCUAGCUCAUCGGGUG [Fam2.2 aminoacylation ribozyme variant]
self-aminoacylation (biotinyl-Met-oxazolone): 2.12
self-aminoacylation (biotinyl-Trp-oxazolone): 2.3

AUUCAUCUAGGUCAUCAGGUG [Fam2.2 aminoacylation ribozyme variant]
self-aminoacylation (biotinyl-Phe-oxazolone): 2.89
self-aminoacylation (biotinyl-Met-oxazolone): 2.23
self-aminoacylation (biotinyl-Trp-oxazolone): 2.07

AUUCCCCUGGUCAUCAAGUGA [Fam2.1 aminoacylation ribozyme variant]
self-aminoacylation (biotinyl-Phe-oxazolone): 3.87
self-aminoacylation (biotinyl-Met-oxazolone): 2.36
self-aminoacylation (biotinyl-Trp-oxazolone): 2.34

CAACUUCAAACAAUCGGUCUG [Fam1A.1 aminoacylation ribozyme variant]
self-aminoacylation (biotinyl-Leu-oxazolone): 2.61
self-aminoacylation (biotinyl-Phe-oxazolone): 97.7
self-aminoacylation (biotinyl-Trp-oxazolone): 44.8

CACCUUCAAACAAUCGGUCUG [Fam1A.1 aminoacylation ribozyme variant]
self-aminoacylation (biotinyl-Leu-oxazolone): 2.61
self-aminoacylation (biotinyl-Phe-oxazolone): 98.1
self-aminoacylation (biotinyl-Trp-oxazolone): 43.9

CAGUUUGCUAAUAGUCGCAUG [Fam3.1 aminoacylation ribozyme variant]
self-aminoacylation (biotinyl-Leu-oxazolone): 2.08
self-aminoacylation (biotinyl-Phe-oxazolone): 2.84
self-aminoacylation (biotinyl-Trp-oxazolone): 2.07

CCACACUUCAGCCAAUCGGUC [Fam1B.1 aminoacylation ribozyme variant]
self-aminoacylation (biotinyl-Leu-oxazolone): 2.27
self-aminoacylation (biotinyl-Trp-oxazolone): 2.11

CCACUUCAAACAAUCGGUCUU [Fam1A.1 aminoacylation ribozyme variant]
self-aminoacylation (biotinyl-Leu-oxazolone): 2.11
self-aminoacylation (biotinyl-Phe-oxazolone): 40.9
self-aminoacylation (biotinyl-Trp-oxazolone): 25.2

CCCCACUUCAAUCAAUCGGUC [Fam1B.1 aminoacylation ribozyme variant]
self-aminoacylation (biotinyl-Leu-oxazolone): 2.28
self-aminoacylation (biotinyl-Phe-oxazolone): 37.1
self-aminoacylation (biotinyl-Trp-oxazolone): 31

CGACUUCAAACAAUCGGUCUG [Fam1A.1 aminoacylation ribozyme variant]
self-aminoacylation (biotinyl-Leu-oxazolone): 2.66
self-aminoacylation (biotinyl-Phe-oxazolone): 102
self-aminoacylation (biotinyl-Trp-oxazolone): 44.4

CGACUUCAAGCAAUCGGUCUG [Fam1A.1 aminoacylation ribozyme variant]
self-aminoacylation (biotinyl-Leu-oxazolone): 2.13
self-aminoacylation (biotinyl-Phe-oxazolone): 26.6
self-aminoacylation (biotinyl-Trp-oxazolone): 20.1

CUACUUCAACCAAUCGGCCUG [Fam1A.1 aminoacylation ribozyme variant]
self-aminoacylation (biotinyl-Leu-oxazolone): 2.86
self-aminoacylation (biotinyl-Phe-oxazolone): 47.8
self-aminoacylation (biotinyl-Trp-oxazolone): 42.2

CUUCACCUAGGUCAACGGGUG [Fam2.2 aminoacylation ribozyme variant]
self-aminoacylation (biotinyl-Leu-oxazolone): 2.48
self-aminoacylation (biotinyl-Phe-oxazolone): 9.32
self-aminoacylation (biotinyl-Met-oxazolone): 2.28

UAGUUUGCUAAUAGUCGCGAG [Fam3.1 aminoacylation ribozyme variant]
self-aminoacylation (biotinyl-Leu-oxazolone): 2.08
self-aminoacylation (biotinyl-Phe-oxazolone): 2.58
self-aminoacylation (biotinyl-Trp-oxazolone): 2.02

UAGUUUGUUAAUAGUCGCAAG [Fam3.1 aminoacylation ribozyme variant]
self-aminoacylation (biotinyl-Leu-oxazolone): 2.05
self-aminoacylation (biotinyl-Phe-oxazolone): 3.23

UCACACUUCAAGGAAUCGGUC [Fam1B.1 aminoacylation ribozyme variant]
self-aminoacylation (biotinyl-Phe-oxazolone): 5.43
self-aminoacylation (biotinyl-Trp-oxazolone): 3.91

UCAUACUUCAAGCAAUCGGUC [Fam1B.1 aminoacylation ribozyme variant]
self-aminoacylation (biotinyl-Phe-oxazolone): 16.9
self-aminoacylation (biotinyl-Trp-oxazolone): 9.74

UUAAUUCAAACAAUCGGUCUG [Fam1A.1 aminoacylation ribozyme variant]
self-aminoacylation (biotinyl-Phe-oxazolone): 3.57
self-aminoacylation (biotinyl-Trp-oxazolone): 2.47

UUACUUCAAACAAUCAGUCUG [Fam1A.1 aminoacylation ribozyme variant]
self-aminoacylation (biotinyl-Phe-oxazolone): 20.1
self-aminoacylation (biotinyl-Trp-oxazolone): 9.66

UUACUUCAAACAAUCGGUCUA [Fam1A.1 aminoacylation ribozyme variant]
self-aminoacylation (biotinyl-Phe-oxazolone): 6.02
self-aminoacylation (biotinyl-Trp-oxazolone): 2.61

UUACUUCAAAUAAUCGGUCUG [Fam1A.1 aminoacylation ribozyme variant]
self-aminoacylation (biotinyl-Phe-oxazolone): 10.3
self-aminoacylation (biotinyl-Trp-oxazolone): 7.5

UUUCUUCAAACAAUCGGUCUG [Fam1A.1 aminoacylation ribozyme variant]
self-aminoacylation (biotinyl-Phe-oxazolone): 7.67
self-aminoacylation (biotinyl-Trp-oxazolone): 5.16
